{"source": "paper PMC2646761", "proteins": {"B1": {"name": "Cg10062 (Corynebacterium glutamicum ATCC 13032) (protein)", "chain": "PTYTCWSQRIRISREAKQRIAEAITDAHHELAHAPKYLVQVIFNEVEPDSYFIAAQSASENHIWVQATIRSGRTEKQKEELLLRLTQEIALILGIPNEEVWVYITEIPGSNMTEYGRLLMEPGEEEKWFNSLPEGLRERLTELEGSSE"}}, "substrate": "CC#CC(=O)C(=O)O", "assay": "purified protein", "assay_type": "biochemical, Corynebacterium glutamicum", "conditions": "hydration of 2-oxo-3-pentynoate; typical value of the enzyme preparations used"}
{"protein": "B1", "values": [{"measurement": "Km", "result": "4.2 ± 0.3", "unit": "mM"}, {"measurement": "kcat", "result": "0.16 ± 0.01", "unit": "s⁻¹"}]}
